Results as given in patent publication US20160244525A1.
pKd: −log10 of the molar value.

What was measured:
FGFR3-IIIb (human) [1] = experiment: SPR
[2] = target: FGFR3-IIIb (D2D3) (human); experiment: SPR (Biacore)
FGFR3-D2 (human) = FGFR3-D2 (human) (UniProt P22607); experiment: SPR (Biacore)
FGFR3-IIIb (human) [3] = experiment: blocking ELISA: FGFR3-IIIb-Fc captured on an anti-human Fc plate, antibody titrated, FGF-1 (with heparin) is the blocked ligand, bound FGF-1 read as OD450
FGFR3-IIIb (human) [4] = experiment: SPR (Biacore T100), IgG captured by anti-human Fc, FGFR flowed

FGFR3-IIIb (human), sequence (chain, as listed by the source limits assumed): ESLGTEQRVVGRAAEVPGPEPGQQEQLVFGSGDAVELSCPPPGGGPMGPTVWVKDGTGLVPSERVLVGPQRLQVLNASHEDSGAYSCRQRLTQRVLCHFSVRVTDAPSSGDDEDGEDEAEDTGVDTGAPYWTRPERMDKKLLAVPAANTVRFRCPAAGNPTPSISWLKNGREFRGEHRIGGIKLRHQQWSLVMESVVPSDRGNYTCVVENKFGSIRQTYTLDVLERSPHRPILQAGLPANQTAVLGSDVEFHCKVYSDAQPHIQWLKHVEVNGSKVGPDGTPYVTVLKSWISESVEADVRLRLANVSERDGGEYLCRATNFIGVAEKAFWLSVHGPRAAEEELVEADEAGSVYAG
R3Mab (antibody), sequence (VH): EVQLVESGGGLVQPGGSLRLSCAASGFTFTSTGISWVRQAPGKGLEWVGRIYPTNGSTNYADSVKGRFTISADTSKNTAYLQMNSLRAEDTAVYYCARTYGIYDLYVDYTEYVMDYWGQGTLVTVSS
R3Mab (antibody), sequence (VL): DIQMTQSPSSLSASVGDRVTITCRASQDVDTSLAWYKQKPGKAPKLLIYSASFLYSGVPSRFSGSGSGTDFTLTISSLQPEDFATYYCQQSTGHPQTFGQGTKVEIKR
FGFR3-IIIb (D2D3) (human), sequence (chain, as listed by the source limits assumed): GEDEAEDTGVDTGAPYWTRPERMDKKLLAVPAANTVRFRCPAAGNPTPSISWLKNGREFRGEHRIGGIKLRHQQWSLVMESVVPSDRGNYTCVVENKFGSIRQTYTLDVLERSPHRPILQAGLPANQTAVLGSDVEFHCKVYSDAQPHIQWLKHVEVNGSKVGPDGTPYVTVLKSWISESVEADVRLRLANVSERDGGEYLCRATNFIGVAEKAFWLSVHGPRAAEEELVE
FGFR3-D2 (human), sequence (P22607 150-248 limits assumed): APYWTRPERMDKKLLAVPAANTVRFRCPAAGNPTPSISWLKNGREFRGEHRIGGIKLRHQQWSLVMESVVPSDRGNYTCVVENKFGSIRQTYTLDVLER

pKd (FGFR3-IIIb (human) [1]): 9.62 | pKd [2]: 9.62 | pKd (FGFR3-D2 (human)): 9.59 | IC50 (read off the curve) (FGFR3-IIIb (human) [3]): 1 to 2 nM | pKd (FGFR3-IIIb (human) [4]): 9.62
Substance: R3Mab (antibody)
